In patent US20260234245A1 (ELTHERA, published 2026):
Substitutions are numbered along the chain they refer to. Numbers in names are those of the source.

B1: Humanized optimized antibody “AFF4” (human IgG format; with G236A/S239D/A330L/I332E mutations) (antibody)
heavy: QVQLQESGPGLVKPSQTLSLTCTVTGYSITSDYTWNWIRQFPGKGLEWMGYISYSGSYSYNPSLKSRVTISRDTSKNQFSLKLSSVTAADTAVYYCARSFSYSYGFAYWGQGTLVTVSSASTKGPSVFPLAPSSKSTSGGTAALGCLVKDYFPEPVTVSWNSGALTSGVHTFPAVLQSSGLYSLSSVVTVPSSSLGTQTYICNVNHKPSNTKVDKRVEPKSCDKTHTCPPCPAPELLAGPDVFLFPPKPKDTLMISRTPEVTCVVVDVSHEDPEVKFNWYVDGVEVHNAKTKPREEQYNSTYRVVSVLTVLHQDWLNGKEYKCKVSNKALPLPEEKTISKAKGQPREPQVYTLPPSREEMTKNQVSLTCLVKGFYPSDIAVEWESNGQPENNYKTTPPVLDSDGSFFLYSKLTVDKSRWQQGNVFSCSVMHEALHNHYTQKSLSLSPG
light: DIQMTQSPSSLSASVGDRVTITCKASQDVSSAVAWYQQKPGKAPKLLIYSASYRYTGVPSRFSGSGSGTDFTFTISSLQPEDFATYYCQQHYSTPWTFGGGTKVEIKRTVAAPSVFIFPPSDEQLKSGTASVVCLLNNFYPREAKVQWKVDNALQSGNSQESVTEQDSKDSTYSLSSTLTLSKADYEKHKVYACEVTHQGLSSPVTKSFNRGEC
notes: also called AFF4 antibody
B2: AFF1 (antibody, human IgG1, V domains shown)
VH: QVQLQESGPGLVKPSQTLSLTCTVTGYSITSDYAWNWIRQFPGKGLEWMGYISYSGSFSYNPSLKSRVTISRDTSKNQFSLKLSSVTAADTAVYYCARSFSYSYGFAYWGQGTLVTVSS
VL: DIQMTQSPSSLSASVGDRVTITCKASQDVSSAVAWYQQKPGKAPKLLIYSASYRYTGVPSRFSGSGSGTDFTFTISSLQPEDFATYYCQQHYSTPWTFGGGTKVEIK
B3: AFF6 (antibody, human IgG1, V domains shown)
VH: B2 VH with A34T, F100L, S103G
VL: B2 VL
B4: AFF5 (antibody, human IgG1, V domains shown)
VH: B2 VH with A34T, F58Y, N61H, F100L, S103G
VL: B2 VL
B5: AFF7 (antibody, human IgG1, V domains shown)
VH: B2 VH
VL: B2 VL with T56I
B6: AFF3 (antibody, human IgG1, V domains shown)
VH: B2 VH with F58Y
VL: B2 VL
B7: AFF10 (antibody, human IgG1, V domains shown)
VH: B2 VH with A34T, F58Y, N61H, S103G
VL: B2 VL
B8: AFF8 (antibody, human IgG1, V domains shown)
VH: B2 VH with A34T
VL: B2 VL with T56I
B9: AFF2 (antibody, human IgG1, V domains shown)
VH: B2 VH with A34T
VL: B2 VL
B10: AFF9 (antibody, human IgG1, V domains shown)
VH: B2 VH with F58Y, S103A
VL: B2 VL
B11: H1L1 (antibody, V domains shown)
VH: B2 VH with N61H, S103G
VL: B2 VL
notes: also called humanized antibody variant H1L1; parental antibody H1L1
B12: H1L2 (antibody, V domains shown)
VH: B2 VH with N61H, S103G
VL: B2 VL with Q3V, K42Q, A43S, S60D, V104L
notes: also called humanized antibody variant H1L2

Target: T1, soluble His-tagged human L1CAM (extracellular portion, amino acids 20 to 1120) (human, UniProt P32004 20-1120)
T1 construct: range 20-1120; Expressed in HEK cells with an N-terminal leader peptide for secretion (not part of the assayed protein)
Assay: SPR (Biacore T200), antibody captured on Protein A chip, His-tagged human L1CAM as analyte 5, 10, 20, 40 nM, 1:1 Langmuir fit
Experimental: (§1) Monovalent kinetic binding constants of the eight humanized antibody variants towards human L1CAM were determined by surface plasmon resonance using a Biacore T200 instrument. Antibodies were captured via their Fc regions on a C1 Protein A Chip (GE Healthcare), and soluble His-tagged human L1CAM was injected as analyte in 3 different concentrations (10, 20 and 40 nM), using 10 mM HEPES/150 mM NaCl/3 mM EDTA/0.05% Tween 20 as running buffer. Detected resonance units (sensorgrams) were fitted to a 1:1 Langmuir binding model and association (kₐ) and dissociation (kd) rate constants as well as the affinity constants (KD) were calculated.
The monovalent kinetic binding constants towards human L1CAM were determined by surface plasmon resonance using a Biacore T200 instrument as described in Example 4, except that soluble His-tagged human L1CAM was injected in 4 different concentrations (5, 10, 20 and 40 nM).

T1 sequence (P32004 other isoform, or with tags, fused parts or gaps limits assumed): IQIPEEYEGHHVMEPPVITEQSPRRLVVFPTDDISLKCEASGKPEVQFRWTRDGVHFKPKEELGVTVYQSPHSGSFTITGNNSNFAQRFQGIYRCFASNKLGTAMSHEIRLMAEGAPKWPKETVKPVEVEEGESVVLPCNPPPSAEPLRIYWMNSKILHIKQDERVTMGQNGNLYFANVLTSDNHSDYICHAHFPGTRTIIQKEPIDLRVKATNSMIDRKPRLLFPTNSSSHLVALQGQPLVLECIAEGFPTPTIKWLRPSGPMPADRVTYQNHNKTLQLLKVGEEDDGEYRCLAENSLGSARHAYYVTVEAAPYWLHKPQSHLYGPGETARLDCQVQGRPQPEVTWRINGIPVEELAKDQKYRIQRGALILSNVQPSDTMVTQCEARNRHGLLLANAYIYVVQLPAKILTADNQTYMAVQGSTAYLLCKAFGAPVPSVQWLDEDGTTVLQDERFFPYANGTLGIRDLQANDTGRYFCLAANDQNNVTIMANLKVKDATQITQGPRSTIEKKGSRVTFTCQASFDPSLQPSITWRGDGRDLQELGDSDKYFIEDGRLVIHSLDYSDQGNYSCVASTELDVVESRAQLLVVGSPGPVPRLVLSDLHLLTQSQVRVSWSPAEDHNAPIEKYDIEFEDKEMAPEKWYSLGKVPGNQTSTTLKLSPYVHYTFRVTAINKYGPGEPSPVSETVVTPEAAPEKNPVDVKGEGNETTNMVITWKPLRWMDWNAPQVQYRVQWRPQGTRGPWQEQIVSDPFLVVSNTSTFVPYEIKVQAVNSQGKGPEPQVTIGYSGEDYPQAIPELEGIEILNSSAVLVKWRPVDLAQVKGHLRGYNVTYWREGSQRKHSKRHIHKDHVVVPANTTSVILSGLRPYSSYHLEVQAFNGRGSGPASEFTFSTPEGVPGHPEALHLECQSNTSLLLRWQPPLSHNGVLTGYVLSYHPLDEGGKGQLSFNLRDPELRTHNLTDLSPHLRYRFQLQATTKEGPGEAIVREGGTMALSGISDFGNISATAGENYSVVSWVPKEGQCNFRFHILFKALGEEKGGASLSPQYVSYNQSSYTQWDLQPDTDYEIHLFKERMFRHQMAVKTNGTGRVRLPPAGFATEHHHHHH

Binder | Kd [nM] | koff [s⁻¹] | kon [M⁻¹ s⁻¹]
B1 | 0.2 | 8.45e-05 | 416000
B2 | 0.36 | 0.000104 | 290000
B3 | 0.98 | 0.000337 | 345000
B4 | 0.72 | 0.000252 | 349000
B5 | 0.32 | 8.83e-05 | 273000
B6 | 0.22 | 6.52e-05 | 299000
B7 | 0.99 | 0.000251 | 255000
B8 | 0.3 | 0.000116 | 383000
B9 | 0.31 | 0.000126 | 411000
B10 | 0.36 | 9.28e-05 | 258000

Target: T1, soluble His-tagged human L1CAM …
Assay: SPR (Biacore T200), antibody captured on C1 Protein A chip, His-tagged human L1CAM as analyte 10, 20, 40 nM, 1:1 Langmuir fit
Experimental: as §1

Binder | Kd [nM] | koff [s⁻¹] | kon [M⁻¹ s⁻¹]
B11 | 4.5 | 0.00079 | 177000
B12 | 6.1 | 0.000872 | 144000
